Like-named read-outs stand apart in the source and are kept apart here.
B1: 16 bp RNA, 25 nt 5' tail (R16-5'a/R41-5'a) (dsRNA)
RNA 1: AGCACCGUAAAGACGC
RNA 2: AAAACAAAACAAAACAAAACAAAAUGCGUCUUUACGGUGCU
B2: 19 bp RNA, 25 nt 5' tail (R19-5'c/R44-5'c) (dsRNA)
RNA 1: CAGAGGAGCAGAGGGAGCA
RNA 2: AAACUACGACUACAGUAACUACGACUGCUCCCUCUGCUCCUCUG
B3: 13 bp RNA, 25 nt 5' tail (R13-5'a/R38-5'a) (dsRNA)
RNA 1: CGAAAUGCCACGA
RNA 2: AAAACAAAACAAAACAAAACAAAAUUCGUGGCAUUUCG
B4: 16 bp RNA, 25 nt 3' tail (R16-3'c/R41-3'c) (dsRNA)
RNA 1: CCGUCUUUACGGUGCU
RNA 2: AGCACCGUAAAGACGGUAAAACAAAACAAAACAAAACAAAA
B5: 16 bp RNA, 15 nt 3' tail (dsRNA)
RNA 1: CCGUCUUUACGGUGCU
RNA 2: AGCACCGUAAAGACGGUAAAACAAAACAAAA

Tests used:
Test in all cases: functional binding isotherm
DDX3X [1] = target: T1, DDX3X (Homo sapiens, UniProt O00571 1-662)
DDX3X [2] = target: T1, DDX3X; remark: listed apart in the source
DDX3X [3] = target: T1, DDX3X; remark: listed apart in the source

T1 sequence (O00571 whole entry): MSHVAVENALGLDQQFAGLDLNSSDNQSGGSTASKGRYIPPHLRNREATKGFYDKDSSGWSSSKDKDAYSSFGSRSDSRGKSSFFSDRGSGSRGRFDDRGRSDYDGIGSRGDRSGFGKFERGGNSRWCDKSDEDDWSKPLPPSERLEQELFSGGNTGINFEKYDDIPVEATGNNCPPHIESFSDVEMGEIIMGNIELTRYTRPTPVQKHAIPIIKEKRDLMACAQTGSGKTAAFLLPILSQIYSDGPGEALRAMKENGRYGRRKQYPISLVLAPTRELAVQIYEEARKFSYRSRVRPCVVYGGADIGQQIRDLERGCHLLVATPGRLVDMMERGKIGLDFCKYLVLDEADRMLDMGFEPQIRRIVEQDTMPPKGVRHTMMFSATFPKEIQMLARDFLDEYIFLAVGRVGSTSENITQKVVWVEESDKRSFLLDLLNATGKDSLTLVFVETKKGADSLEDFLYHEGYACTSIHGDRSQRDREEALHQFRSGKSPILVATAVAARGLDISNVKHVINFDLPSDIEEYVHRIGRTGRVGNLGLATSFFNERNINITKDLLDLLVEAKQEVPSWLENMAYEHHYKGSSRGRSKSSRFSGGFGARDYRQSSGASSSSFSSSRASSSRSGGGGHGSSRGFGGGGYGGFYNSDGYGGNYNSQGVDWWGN

Binder	apparent K (half saturation) (DDX3X [1])	apparent K (half saturation) (DDX3X [2])	apparent K (half saturation) (DDX3X [3])
B1	127 ± 20 nM	119 ± 35 nM	
B2		166 ± 18 nM	
B3			139 ± 21 nM
B4	118 ± 5 nM		
B5	298 ± 4 nM		
